Patent US20160368965A1 (IMMATICS BIOTECHNOLOGIES, published 2016)

Target: T1, HLA-A*02:01 (human)
T1 construct: the tested peptide takes its place; also called peptide-receptive MHC molecules; MHC class I
Assay: UV-ligand exchange, anti-β2m ELISA; grade of peptide exchange yield
Source text: Candidate peptides for T cell based therapies according to the present invention were further tested for their MHC binding capacity (affinity). The individual peptide-MHC complexes were produced by UV-ligand exchange, where a UV-sensitive peptide is cleaved upon UV-irradiation, and exchanged with the peptide of interest as analyzed. Only peptide candidates that can effectively bind and stabilize the peptide-receptive MHC molecules prevent dissociation of the MHC complexes. To determine the yield of the exchange reaction, an ELISA was performed based on the detection of the light chain (β2m) of stabilized MHC complexes. The assay was performed as generally described in Rodenko et al. (Rodenko et al., 2006).
96 well MAXISorp plates (NUNC) were coated over night with 2 ug/ml streptavidin in PBS at room temperature, washed 4× and blocked for 1h at 37° C. in 2% BSA containing blocking buffer. Refolded HLA-A*02:01/MLA-001 monomers served as standards, covering the range of 15-500 ng/ml. Peptide-MHC monomers of the UV-exchange reaction were diluted 100 fold in blocking buffer. Samples were incubated for 1 h at 37° C., washed four times, incubated with 2 ug/ml HRP conjugated anti-β2m for 1h at 37° C., washed again and detected with TMB solution that is stopped with […]. Absorption was measured at 450 nm. Candidate peptides that show a high exchange yield (preferably higher than 50%, most preferred higher than 75%) are generally preferred for a generation and production of antibodies or fragments thereof, and/or T cell receptors or fragments thereof, as they show sufficient avidity to the MHC molecules and prevent dissociation of the MHC complexes.

Binder | peptide exchange yield [%]
YIDKDLEYV [YIDKDLEYV (SEQ ID NO: 74)] | 50 to 75
HLGVKVFSV [HLGVKVFSV (SEQ ID NO: 43)] | 20 to 50
ALSKEIYVI [ALSKEIYVI (SEQ ID NO: 83)] | 50 to 75
FLEDDDIAAV [FLEDDDIAAV (SEQ ID NO: 34)] | 20 to 50
SLQDTEEKSRS [SLQDTEEKSRS (SEQ ID NO: 78)] | 50 to 75
FLGDLSHLL [FLGDLSHLL (SEQ ID NO: 36)] | 20 to 50
LLDGFPRTV [LLDGFPRTV (SEQ ID NO: 49)] | 20 to 50
TLLAHPVTL [TLLAHPVTL (SEQ ID NO: 27)] | 50 to 75
TLNEKLTAL [TLNEKLTAL (SEQ ID NO: 65)] | 50 to 75
FLTPSIFII [FLTPSIFII (SEQ ID NO: 39)] | 20 to 50
RQYPWGVVQV [RQYPWGVVQV (SEQ ID NO: 58)] | 20 to 50
ALYTGSALDFV [ALYTGSALDFV (SEQ ID NO: 8)] | 50 to 75
LIYKDLVSV [LIYKDLVSV (SEQ ID NO: 47)] | 50 to 75
NLAPAPLNA [NLAPAPLNA (SEQ ID NO: 55)] | 20 to 50
SLWEDYPHV [SLWEDYPHV (SEQ ID NO: 60)] | ≥ 75
FLNPDEVHAI [FLNPDEVHAI (SEQ ID NO: 37)] | 20 to 50
VMVDGKPVNL [VMVDGKPVNL (SEQ ID NO: 73)] | ≥ 75
ALIAEGIAL [ALIAEGIAL (SEQ ID NO: 82)] | 50 to 75
SLSESFFMV [SLSESFFMV (SEQ ID NO: 59)] | 50 to 75
FILPIGATV [FILPIGATV (SEQ ID NO: 84)] | ≥ 75
ILSDMRSQYEV [ILSDMRSQYEV (SEQ ID NO: 42)] | 50 to 75
FLTEAALGDA [FLTEAALGDA (SEQ ID NO: 38)] | 50 to 75
KLDSSGGAVQL [KLDSSGGAVQL (SEQ ID NO: 23)] | 20 to 50

Binder | peptide exchange yield [%]
LLFGSDGYYV [LLFGSDGYYV (SEQ ID NO: 50)] | 50 to 75
VVYDDSTGLIRL [VVYDDSTGLIRL (SEQ ID NO: 81)] | 50 to 75
VLDEFYSSL [VLDEFYSSL (SEQ ID NO: 28)] | 50 to 75
VLLPEGGITAI [VLLPEGGITAI (SEQ ID NO: 71)] | 50 to 75
ILYSDDGQKWTV [ILYSDDGQKWTV (SEQ ID NO: 45)] | 50 to 75
ILAQVGFSV [ILAQVGFSV (SEQ ID NO: 44)] | 50 to 75
RLFPGSSFL [RLFPGSSFL (SEQ ID NO: 77)] | ≥ 75
VLGVIWGV [VLGVIWGV (SEQ ID NO: 70)] | ≥ 75
SMYDGLLQA [SMYDGLLQA (SEQ ID NO: 61)] | 20 to 50
GLAPQIHDL [GLAPQIHDL (SEQ ID NO: 40)] | 20 to 50
ILSTEIFGV [ILSTEIFGV (SEQ ID NO: 22)] | 50 to 75
SVFPGARLL [SVFPGARLL (SEQ ID NO: 62)] | 10 to 20
RLSELGITQA [RLSELGITQA (SEQ ID NO: 57)] | 50 to 75
ALDPAAQAFLL [ALDPAAQAFLL (SEQ ID NO: 4)] | 50 to 75
FLSDGTIISV [FLSDGTIISV (SEQ ID NO: 85)] | ≥ 75
LINPNIATV [LINPNIATV (SEQ ID NO: 25)] | 20 to 50
VMASPGGLSAV [VMASPGGLSAV (SEQ ID NO: 72)] | 50 to 75
YIYKDTIQV [YIYKDTIQV (SEQ ID NO: 30)] | 20 to 50
ILIGETIKI [ILIGETIKI (SEQ ID NO: 3)] | 50 to 75
ALVDIVRSL [ALVDIVRSL (SEQ ID NO: 7)] | 50 to 75
LLPGTEYVVSV [LLPGTEYVVSV (SEQ ID NO: 80)] | 50 to 75
GLVDGRDLVIV [GLVDGRDLVIV (SEQ ID NO: 21)] | 50 to 75
VLFDVTGQV [VLFDVTGQV (SEQ ID NO: 68)] | 50 to 75

Binder | peptide exchange yield [%]
GLLAGNEKLTM [GLLAGNEKLTM (SEQ ID NO: 41)] | 20 to 50
YVDDGLISL [YVDDGLISL (SEQ ID NO: 32)] | 20 to 50
ALTGIPLPLI [ALTGIPLPLI (SEQ ID NO: 6)] | 50 to 75
VIWGTDVNV [VIWGTDVNV (SEQ ID NO: 67)] | ≥ 75
LLSDPIPEV [LLSDPIPEV (SEQ ID NO: 52)] | 50 to 75
VLFSGSLRL [VLFSGSLRL (SEQ ID NO: 69)] | 50 to 75
YLDSMYIML [YLDSMYIML (SEQ ID NO: 31)] | 50 to 75
VVYEGQLISI [VVYEGQLISI (SEQ ID NO: 79)] | 50 to 75
SLYTALTEA [SLYTALTEA (SEQ ID NO: 26)] | 50 to 75
ALLTGIISKA [ALLTGIISKA (SEQ ID NO: 5)] | 50 to 75
SVTGIIVGV [SVTGIIVGV (SEQ ID NO: 63)] | ≥ 75
FLFPSQYVDV [FLFPSQYVDV (SEQ ID NO: 35)] | 50 to 75
LLWDPSTGKQV [LLWDPSTGKQV (SEQ ID NO: 53)] | 50 to 75
TMVEHNYYV [TMVEHNYYV (SEQ ID NO: 46)] | 50 to 75
YILPFSEVL [YILPFSEVL (SEQ ID NO: 29)] | ≥ 75
LLDENGVLKL [LLDENGVLKL (SEQ ID NO: 48)] | 50 to 75
NLIGVTAEL [NLIGVTAEL (SEQ ID NO: 56)] | 20 to 50
TLFSEPKFAQV [TLFSEPKFAQV (SEQ ID NO: 64)] | ≥ 75
LLGPAGARA [LLGPAGARA (SEQ ID NO: 51)] | 20 to 50
KLSENAGIQSL [KLSENAGIQSL (SEQ ID NO: 24)] | 20 to 50
LTQPGPIASA [LTQPGPIASA (SEQ ID NO: 54)] | 50 to 75
